According to the supplement of paper PMC10598134:
± gives the standard deviation.

Assay: collision cross section of modified peptide (TIMS, N2, iRT-aligned); higher = larger / more extended gas-phase ion
Procedure: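 1/K0 was aligned run-wise to spiked iRT peptides and converted to CCS in N2 (Mason-Schamp). Values are the mean of 1-3 technical replicates for the most abundant feature at each charge state.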

[1] = charge state: 2, modification: Nitro (Y)
[2] = charge state: 3, modification: Nitro (Y)
[3] = charge state: 2, modification: Phospho (Y)
[4] = charge state: 3, modification: Phospho (Y)
[5] = charge state: 2, modification: Citrullination (R)
[6] = charge state: 3, modification: Citrullination (R)
[7] = charge state: 2, modification: Methyl (R)
[8] = charge state: 3, modification: Methyl (R)
[9] = charge state: 2, modification: Acetyl (K)
[10] = charge state: 2, modification: Biotin
[11] = charge state: 3, modification: Biotin
[12] = charge state: 2, modification: Butyryl
[13] = charge state: 2, modification: Crotonyl
[14] = charge state: 2, modification: Dimethyl (K)
[15] = charge state: 3, modification: Dimethyl (K)
[16] = charge state: 2, modification: Formyl
[17] = charge state: 2, modification: Glutarylation
[18] = charge state: 3, modification: Glutarylation
[19] = charge state: 2, modification: GlyGly (K)
[20] = charge state: 3, modification: GlyGly (K)
[21] = charge state: 2, modification: Malonyl
[22] = charge state: 3, modification: Malonyl
[23] = charge state: 2, modification: Methyl (K)
[24] = charge state: 3, modification: Methyl (K)
[25] = charge state: 2, modification: Propionyl
[26] = charge state: 2, modification: Succinyl
[27] = charge state: 3, modification: Succinyl
[28] = charge state: 2, modification: Trimethyl (K)
[29] = charge state: 3, modification: Trimethyl (K)
[30] = charge state: 2, modification: hydroxyisobutyryl
[31] = charge state: 3, modification: hydroxyisobutyryl
[32] = charge state: 3, modification: Acetyl (K)
[33] = charge state: 3, modification: Butyryl
[34] = charge state: 3, modification: Crotonyl
[35] = charge state: 3, modification: Formyl
[36] = charge state: 3, modification: Propionyl

Work on AAGQPYEQHAK [_AAGQPY(Nitro (Y))EQHAK_] yielded a collision cross section [1] of 375.04 ± 1.1 Å² and a collision cross section [2] of 431.09 ± 1.1 Å².

Work on “AAGQPYEQHAK [_AAGQPY(Phospho (Y))EQHAK_]” yielded a collision cross section [3] of 368.83 ± 10 Å² and a collision cross section [4] of 436.55 Å².

Sequence “AAHGRGALAEAAR [_AAHGR(Citrullination (R))GALAEAAR_]” has a collision cross section [5] of 378.79 ± 0.65 Å² and a collision cross section [6] of 458.38 ± 1.8 Å².

In the case of “AAHGRGALAEAAR [_AAHGR(Methyl (R))GALAEAAR_]”, the collision cross section [7] is reported as 401.51 ± 8.3 Å² and the collision cross section [8] is reported as 469.45 ± 1.5 Å².

With “AAINQKLIETGER [_AAINQK(Acetyl (K))LIETGER_]” the collision cross section [9] was 403.07 ± 1 Å².

Work on AAINQKLIETGER [_AAINQK(Biotin)LIETGER_] yielded a collision cross section [10] of 426.96 ± 1.5 Å² and a collision cross section [11] of 497.24 Å².

“AAINQKLIETGER [_AAINQK(Butyryl)LIETGER_]” showed a collision cross section [12] of 410.95 ± 1.7 Å².

“AAINQKLIETGER [_AAINQK(Crotonyl)LIETGER_]” gave a collision cross section [13] of 409.27 ± 0.81 Å².

“AAINQKLIETGER [_AAINQK(Dimethyl (K))LIETGER_]” showed a collision cross section [14] of 413.1 ± 1.4 Å² and a collision cross section [15] of 468.56 ± 2.6 Å².

With AAINQKLIETGER [_AAINQK(Formyl)LIETGER_] the collision cross section [16] was 399.86 ± 0.2 Å².

“AAINQKLIETGER [_AAINQK(Gluratylation)LIETGER_]” showed a collision cross section [17] of 412.05 ± 1.1 Å² and a collision cross section [18] of 483.6 ± 2.4 Å².

For “AAINQKLIETGER [_AAINQK(GlyGly (K))LIETGER_]”, the collision cross section [19] was 412.96 ± 0.98 Å² and the collision cross section [20] was 477.22 ± 1.3 Å².

With “AAINQKLIETGER [_AAINQK(Malonyl)LIETGER_]” the collision cross section [21] was 404.84 ± 0.034 Å² and the collision cross section [22] was 473.19 Å².

In the case of “AAINQKLIETGER [_AAINQK(Methyl (K))LIETGER_]”, the collision cross section [23] is reported as 414.21 ± 2.1 Å² and the collision cross section [24] is reported as 471.88 ± 4.4 Å².

“AAINQKLIETGER [_AAINQK(Propionyl)LIETGER_]” showed a collision cross section [25] of 404.63 ± 0.38 Å².

With “AAINQKLIETGER [_AAINQK(Succinyl)LIETGER_]” the collision cross section [26] was 409.41 ± 0.25 Å² and the collision cross section [27] was 475.95 ± 0.68 Å².

In the case of “AAINQKLIETGER [_AAINQK(Trimethyl (K))LIETGER_]”, the collision cross section [28] is reported as 420.64 ± 0.75 Å² and the collision cross section [29] is reported as 472.14 ± 3.7 Å².

In the case of “AAINQKLIETGER [_AAINQK(hydroxyisobutyryl)LIETGER_]”, the collision cross section [30] is reported as 409.76 ± 0.32 Å² and the collision cross section [31] is reported as 478.62 Å².

“AAQASDLEKIHLDEK [_AAQASDLEK(Acetyl (K))IHLDEK_]” gave a collision cross section [9] of 454.7 ± 2.5 Å² and a collision cross section [32] of 495.59 ± 1.3 Å².

With “AAQASDLEKIHLDEK [_AAQASDLEK(Biotin)IHLDEK_]” the collision cross section [11] was 515.52 Å².

Work on “AAQASDLEKIHLDEK [_AAQASDLEK(Butyryl)IHLDEK_]” yielded a collision cross section [12] of 463.03 ± 1.1 Å² and a collision cross section [33] of 499.42 ± 2.9 Å².

In the case of “AAQASDLEKIHLDEK [_AAQASDLEK(Crotonyl)IHLDEK_]”, the collision cross section [13] is reported as 464.23 ± 0.82 Å² and the collision cross section [34] is reported as 499.02 ± 2.2 Å².

Work on “AAQASDLEKIHLDEK [_AAQASDLEK(Dimethyl (K))IHLDEK_]” yielded a collision cross section [15] of 503.12 ± 0.75 Å².

“AAQASDLEKIHLDEK [_AAQASDLEK(Formyl)IHLDEK_]” gave a collision cross section [16] of 452.43 ± 0.71 Å² and a collision cross section [35] of 490.12 ± 2.1 Å².

With “AAQASDLEKIHLDEK [_AAQASDLEK(Gluratylation)IHLDEK_]” the collision cross section [17] was 471.95 ± 1.5 Å² and the collision cross section [18] was 503.34 ± 1 Å².

“AAQASDLEKIHLDEK [_AAQASDLEK(GlyGly (K))IHLDEK_]” gave a collision cross section [19] of 469.33 ± 0.94 Å² and a collision cross section [20] of 508.49 ± 1.9 Å².

“AAQASDLEKIHLDEK [_AAQASDLEK(Malonyl)IHLDEK_]” showed a collision cross section [21] of 460.56 ± 1.1 Å² and a collision cross section [22] of 500.48 Å².

Sequence “AAQASDLEKIHLDEK [_AAQASDLEK(Methyl (K))IHLDEK_]” has a collision cross section [23] of 449.24 Å² and a collision cross section [24] of 507.05 ± 2 Å².

With “AAQASDLEKIHLDEK [_AAQASDLEK(Propionyl)IHLDEK_]” the collision cross section [36] was 496.94 Å².

With “AAQASDLEKIHLDEK [_AAQASDLEK(Succinyl)IHLDEK_]” the collision cross section [26] was 468.29 ± 1.1 Å² and the collision cross section [27] was 505.3 ± 1.6 Å².

“AAQASDLEKIHLDEK [_AAQASDLEK(Trimethyl (K))IHLDEK_]” gave a collision cross section [28] of 457.14 Å² and a collision cross section [29] of 500.66 ± 1.6 Å².

With “AAQASDLEKIHLDEK [_AAQASDLEK(hydroxyisobutyryl)IHLDEK_]” the collision cross section [30] was 466.52 ± 0.88 Å² and the collision cross section [31] was 501.4 ± 2.8 Å².

With “AAYQAAIRGVGSAQSR [_AAYQAAIR(Citrullination (R))GVGSAQSR_]” the collision cross section [5] was 418.72 ± 0.97 Å² and the collision cross section [6] was 501.27 ± 7.8 Å².

With “AAYQAAIRGVGSAQSR [_AAYQAAIR(Methyl (R))GVGSAQSR_]” the collision cross section [7] was 442.78 ± 1 Å² and the collision cross section [8] was 510.48 ± 1.7 Å².

Work on AEGYEVAHGGR [_AEGY(Nitro (Y))EVAHGGR_] yielded a collision cross section [1] of 365.03 ± 0.17 Å² and a collision cross section [2] of 442.95 ± 1.1 Å².

Work on “AEGYEVAHGGR [_AEGY(Phospho (Y))EVAHGGR_]” yielded a collision cross section [3] of 370.65 ± 0.064 Å² and a collision cross section [4] of 440.52 Å².

“AGPNASIISLKSDK [_AGPNASIISLK(Acetyl (K))SDK_]” gave a collision cross section [9] of 408.51 ± 3 Å².

With “AGPNASIISLKSDK [_AGPNASIISLK(Biotin)SDK_]” the collision cross section [10] was 431.71 ± 1.7 Å² and the collision cross section [11] was 469.41 Å².

For “AGPNASIISLKSDK [_AGPNASIISLK(Butyryl)SDK_]”, the collision cross section [12] was 413.93 ± 1.1 Å².

For “AGPNASIISLKSDK [_AGPNASIISLK(Crotonyl)SDK_]”, the collision cross section [13] was 412.97 ± 0.55 Å².

With “AGPNASIISLKSDK [_AGPNASIISLK(Dimethyl (K))SDK_]” the collision cross section [14] was 413.93 ± 1.1 Å² and the collision cross section [15] was 484.65 ± 1.6 Å².

Work on “AGPNASIISLKSDK [_AGPNASIISLK(Formyl)SDK_]” yielded a collision cross section [16] of 404.66 ± 0.43 Å².

“AGPNASIISLKSDK [_AGPNASIISLK(Gluratylation)SDK_]” showed a collision cross section [17] of 416.83 ± 0.49 Å².

Sequence “AGPNASIISLKSDK [_AGPNASIISLK(GlyGly (K))SDK_]” has a collision cross section [19] of 420.97 ± 0.85 Å² and a collision cross section [20] of 488.88 ± 2 Å².

Work on “AGPNASIISLKSDK [_AGPNASIISLK(Malonyl)SDK_]” yielded a collision cross section [21] of 411.98 ± 0.71 Å².

For “AGPNASIISLKSDK [_AGPNASIISLK(Methyl (K))SDK_]”, the collision cross section [23] was 413.97 ± 1.5 Å² and the collision cross section [24] was 479.63 ± 3.4 Å².

In the case of “AGPNASIISLKSDK [_AGPNASIISLK(Propionyl)SDK_]”, the collision cross section [25] is reported as 409.61 ± 0.38 Å².

Work on “AGPNASIISLKSDK [_AGPNASIISLK(Succinyl)SDK_]” yielded a collision cross section [26] of 414.91 ± 0.86 Å².

In the case of “AGPNASIISLKSDK [_AGPNASIISLK(Trimethyl (K))SDK_]”, the collision cross section [28] is reported as 422.03 ± 0.65 Å² and the collision cross section [29] is reported as 457.38 ± 2.4 Å².

With “AGPNASIISLKSDK [_AGPNASIISLK(hydroxyisobutyryl)SDK_]” the collision cross section [30] was 415.63 ± 0.53 Å².

“AGQKLIDVNHYAK [_AGQK(Acetyl (K))LIDVNHYAK_]” gave a collision cross section [9] of 429.91 ± 1.7 Å² and a collision cross section [32] of 479.89 ± 2.5 Å².

AGQKLIDVNHYAK [_AGQK(Biotin)LIDVNHYAK_] showed a collision cross section [10] of 451.79 ± 0.62 Å² and a collision cross section [11] of 517.92 ± 3.1 Å².

Sequence “AGQKLIDVNHYAK [_AGQK(Butyryl)LIDVNHYAK_]” has a collision cross section [12] of 434.25 ± 1.1 Å² and a collision cross section [33] of 485.15 ± 2.9 Å².

With “AGQKLIDVNHYAK [_AGQK(Crotonyl)LIDVNHYAK_]” the collision cross section [13] was 434.02 ± 0.33 Å² and the collision cross section [34] was 485.3 ± 1.3 Å².

For “AGQKLIDVNHYAK [_AGQK(Dimethyl (K))LIDVNHYAK_]”, the collision cross section [15] was 472.93 ± 1.2 Å².

For AGQKLIDVNHYAK [_AGQK(Formyl)LIDVNHYAK_], the collision cross section [16] was 428.61 ± 0.79 Å² and the collision cross section [35] was 474.19 ± 2.1 Å².

With “AGQKLIDVNHYAK [_AGQK(Gluratylation)LIDVNHYAK_]” the collision cross section [17] was 437.49 ± 0.96 Å² and the collision cross section [18] was 489.6 ± 0.95 Å².

For “AGQKLIDVNHYAK [_AGQK(GlyGly (K))LIDVNHYAK_]”, the collision cross section [19] was 433.04 ± 1.4 Å² and the collision cross section [20] was 485.98 ± 1.6 Å².

Sequence “AGQKLIDVNHYAK [_AGQK(Malonyl)LIDVNHYAK_]” has a collision cross section [21] of 433.55 ± 0.56 Å² and a collision cross section [22] of 477.49 ± 1.8 Å².

“AGQKLIDVNHYAK [_AGQK(Methyl (K))LIDVNHYAK_]” showed a collision cross section [23] of 421.24 ± 1.5 Å² and a collision cross section [24] of 475.12 ± 2.7 Å².

“AGQKLIDVNHYAK [_AGQK(Propionyl)LIDVNHYAK_]” showed a collision cross section [25] of 432.1 ± 1.1 Å² and a collision cross section [36] of 484.45 Å².

With “AGQKLIDVNHYAK [_AGQK(Succinyl)LIDVNHYAK_]” the collision cross section [26] was 435.59 ± 1.1 Å² and the collision cross section [27] was 483.35 ± 2.9 Å².

For “AGQKLIDVNHYAK [_AGQK(Trimethyl (K))LIDVNHYAK_]”, the collision cross section [29] was 474.3 ± 1.8 Å².
